According to paper PMC4275271, “Development and Characterization of a Novel Fusion Protein of a Mutated Granulocyte Colony-Stimulating Factor and Human Serum Albumin in Pichia pastoris” (PLoS ONE, 2014):

T1: recombinant human G-CSF receptor (rhG-CSFR), biotinylated (human, UniProt Q99062 25-627, biotin (biotinylated, site not stated))
T1 construct: human granulocyte colony-stimulating factor receptor
T1 sequence (looked up): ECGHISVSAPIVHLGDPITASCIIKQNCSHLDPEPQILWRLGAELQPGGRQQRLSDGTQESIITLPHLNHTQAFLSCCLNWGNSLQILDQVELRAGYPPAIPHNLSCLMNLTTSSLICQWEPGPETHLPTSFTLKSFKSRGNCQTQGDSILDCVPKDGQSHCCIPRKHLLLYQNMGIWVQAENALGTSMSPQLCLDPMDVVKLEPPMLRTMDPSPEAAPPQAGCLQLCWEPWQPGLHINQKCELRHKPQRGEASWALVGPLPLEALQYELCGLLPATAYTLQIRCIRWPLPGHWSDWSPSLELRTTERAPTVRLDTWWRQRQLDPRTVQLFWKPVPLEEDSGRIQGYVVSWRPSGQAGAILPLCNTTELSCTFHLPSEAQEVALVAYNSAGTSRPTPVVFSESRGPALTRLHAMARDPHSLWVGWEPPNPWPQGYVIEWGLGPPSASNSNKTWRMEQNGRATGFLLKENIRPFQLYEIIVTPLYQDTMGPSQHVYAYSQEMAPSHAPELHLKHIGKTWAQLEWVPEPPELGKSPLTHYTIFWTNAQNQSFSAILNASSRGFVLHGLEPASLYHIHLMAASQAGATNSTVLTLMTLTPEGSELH


Target: T1, recombinant human G-CSF receptor …
Test: BLI; biotinylated rhG-CSFR (15 µg/ml) on Streptavidin High Binding biosensors, Octet-QK; HMG, rhG-CSF standard or mG-CSF in solution; global fitting
Conditions: both partners purified

| Kd [nM] | koff [s⁻¹] | kon [M⁻¹ s⁻¹] | Binder |
| --- | --- | --- | --- |
| 1.2 | 1.94e-05 | 16200 | Human G-CSF mutant (mG-CSF) (ligand, UniProt P09919-2 31-204, looked up, human granulocyte colony-stimulating factor with five substitutions; also called mutated G-CSF) APTYRASSLPQSFLLKSLEQVRKIQGDGAALQEKLCATYKLCHPEELVLLGHSLGIPWAPLSSCPSQALQLAGCLSQLHSGLFLYQGLLQALEGISPELGPTLDTLQLDVADFATTIWQQMEELGMAPALQPTQGAMPAFASAFQRRAGGVLVASHLQSFLEVSYRVLRHLAQP |
| 1.97 | 2.24e-05 | 11400 | recombinant human G-CSF (rhG-CSF) standard (ligand, UniProt P09919-2 31-204, looked up, human granulocyte colony-stimulating factor, rhG-CSF standard of Amgen; Amgen's rhG-CSF is recalled to be the 174-residue mature form with an added N-terminal Met (filgrastim); also called recombinant hG-CSF standard; source: bought: Amgen, USA) TPLGPASSLPQSFLLKCLEQVRKIQGDGAALQEKLCATYKLCHPEELVLLGHSLGIPWAPLSSCPSQALQLAGCLSQLHSGLFLYQGLLQALEGISPELGPTLDTLQLDVADFATTIWQQMEELGMAPALQPTQGAMPAFASAFQRRAGGVLVASHLQSFLEVSYRVLRHLAQP |
